The term stoichiometry N denotes a count of units in the complex or per binding partner.

The values that follow come from publication PMC4241985.

The target in this experiment is transmembrane domain of Thermus thermophilus MgtE (278-450) (Thermus thermophilus) (UniProt Q5SMG8). In words: crystal structure.

Regarding “transmembrane domain of Thermus thermophilus MgtE (278-450) (from UniProt Q5SMG8 278-450) (domain or fragment)”, the stoichiometry N was found to be 2.
